Data taken from a protein production outcome set (Wang et al. 2014).

Experiment: label from the status in PepcDB records

For “MSLDFWLYKQAQQNGHHIAITDGQESYTYQNLYCEASLLAKRLKAYQQSRVGLYIDNSIQSIILIHACWLANIEIAMINTRLTPNEMTNQMRSIDVQLIFCTLPLELRGFQIVSLDDIEFAGRDITTNGLLDNTMGIQYDTSNETVVPKESPSNILNTSFNLDDIASIMFTSGTTGPQKAVPQTFRNHYASAIGCKESLGFDRDTNWLSVLPIYHISGLSVLLRAVIEGFTVRIVDKFNAEQILTMIKNERITHISLVPQTLNWLMQQGLHEPYNLQKILLGGAKLSATMIETALQYNLPIYNSFGMTETCSQFLTATPEMLHARPDTVGMPSANVDVKIKNPNKEGHGELMIKGANVMNGYLYPTDLTGTFENGYFNTGDIAEIDHEGYVMIYDRRKDLIISGGENIYPYQIETVAKQFPGISDAVCVGHPDDTWGQVPKLYFVSESDISKAQLIAYLSKHLAKYKVPKHFEKVDTLPYTSTGKLQRNKLYREGHHHHHH”, the protein production was “not failed”.
In the case of “MSLDKKLMPVPDGHPDVFDREWPLRVGDIDRAGRLRLDAACRHIQDIGQDQLREMGFEETHPLWIVRRTMVDLIRPIEFGDMLRCRRWCSGTSNRWCEMRVRVDGRKGGLIESEAFWIHVNRETEMPARIADDFLAGLHRTTSVDRLRWKGYLKPGSRDDASEIHEFPVRVTDIDLFDHMNNAVYWSVIEDYLASHAELLRGPLRVTIEHEAPVALGDKLEIISHVHPAGSTEIFGPGLVDRAVTTLTYVVGDEPKAVASLFNL”, the protein production is reported as “failed”.
For “MSLDNLDVICIGAAIVDIPLQPVSKNIFDVDSYPLERIAMTTGGDAINEATIISRLGHRTALMSRIGKDAAGQFILDHCRKENIDIQSLKQDVSIDTSINVGLVTEDGERTFVTNRNGSLWKLNIDDVDFARFSQAKLLSLASIFNSPLLDGKALTEIFTQAKARQMIICADMIKPRLNETLDDICEALSYVDYLFPNFAEAKLLTGKETLDEIADCFLACGVKTVVIKTGKDGCFIKRGDMTMKVPAVAGITAIDTIGAGDNFASGFIAALLEGKNLRECARFANATAAISVLSVGATTGVKNRKLVEQLLEEYEGEGHHHHHH”, the protein production was “not failed”.
With “MSLDSALRSRIETLLHSNRVVLFMKGRPGMPQCGFSAKAAGILQALGVEYAHVNVLDDQEIREGIKRYGDWPTIPQLYIDGELIGGSDIVSQMYENGELSTLLGVAAPDLTPPSITITPTAVEMLKGTLANAPGSTLALSIDSRFQPTFELAPINTQAIAAEYNGLRVQFDLASARRAEGITIDWVDDIRGQGLVIDNPNAPQPIQELSPGDAAAQVDAGVLTLVDVRPADERAVASVAVPFRTMDGGERAVLEQLPKGTPLAFLCHHGGRSLQAAEHFRSLGFTSIYNIGGGIDAWSTQVDPGVPKY” the protein production was “failed”.
In the case of “MSLEAAGGIVWRWKAGSDIANDPAIASSKSAQEQLDSIEVCIVHRPKYDDWSWPKGKLEQNETHRHAAVREIGEETGSPVKLGPYLCEVEYPLSEEGKKTRHSHDCTADTKHTLYWMAQPISADDAEHLLDAFGPVHRADVGEINDIVWVSVREARKILSHSTDKDTLAVFVDRVQEGAATAQNLLIVRHAKAESRKSWKGTDANRPITPKGAAMAFALNRELACFNPTRLATSPWLRCQETLQVLSWQTERPMEHINTLTEDAFAEHPAVSWLAFREQITQTLNSRETTAICMHRPVIGGMYDHLRGLCARKQLAKQLIAKSPYMPTGTAMSLFIIDTPQGPSIIDIQKVSPIVYEGHHHHHH”, the protein production is reported as “not failed”.
For “MSLEGIKQINFQSINVVENLEEAKEGIPTIIMFKTDTCPYCVEMQKELSYVSKEREGKFNIYYARLEEEKNIDLAYKYDANIVPTTVFLDKEGNKFYVHQGLMRKNNIETILNSLGVKEGHHHHHH”, the protein production was “not failed”.
With “MSLELARRLVEILLALALIQQSLEHLRGFRDERILFGARIVLAVLVLAGVAGPWPLVGLAGLSLLILHRFQGPYNGGSDRMGLLILWCLTLSSLAPTPILAELAFGYLGAQLTLSYFISGWVKVVNPDWRSGRALRDVFQFSAYPVAESLRGFAQRPGLLRAMSWGVMGFELAFPLTLLWPPALMVGLVVAGTFHLANACLFGLNRFFWTWLSAYPAILWLQGRVF” the protein production was “failed”.
With “MSLETFHYIANQLSGIFNFNGEPLATALIILGLAILSIMILAGLIYGAIKVVKAVPNMPFKQFIIVMLMIAVFLVIVGVLIP” the protein production was “failed”.
For “MSLETKTPNDAKNQVQTHERMKTSSEHVTPLDFNYPIHIVQAPQNHHVVGILTPRIQVSDNLKPYIDKFQDALINQIQTIFEKRGYQVLRFQDEKALNAQDKRKIFSVLDLKGWVGILEDLKMNLKDPNNPNLDTLVDQSSGSVWFNFYEPESNRVVHDFAVEVGTFQAMTYTYKHNNSGGLNSSNSIIHEYLEKNKEDAIHKILNRMYAVVMKKAVTELTKENIDKYREAIDRMKGFKSSMPQKKEGHHHHHH”, the protein production was “not failed”.
For “MSLFEAILIILVLIIISAVISSSEISLAGARKLKLHSLAKDGDIRAEKVMRLQEQPGRFITMVQIGLNMVAILGGVVGESAITPYLAKLLAQYSQAEWTESTASWLSFALVTSAFVLLADLMPKRIAMTYPEQVAVRTINIMLCLITIFKPLVLLFDSIANLLFRLFGISTVRQDNMTSEDIVAVVDAGAKAGILKAQEHYLIENVFEMQERRVTSTMTTRENIIFLDRKDNREQVLATLGEDPYSKVLICDNGLDKILGYIETHDLLTQYLKNDHVSLVDSRLLRKPVFIPDTLSLYEVLELFKSAGEDFAVIVNEYALVVGILTINDVMSIVMGELVSTEEEQIMRRNEDSWLIDGATPLEDVMRALNIHTFPRDENYETIGGFMMYMLRKIPKKTDFVLYDKYKFEIIDTENFRIDQLMVSFRKDV”, the protein production was “failed”.
In the case of “MSLFGTTSGFGTSGTSMFGSATTDNHNPMKDIEVTSSPDDSIGCLSFSPPTLPGNFLIAGSWANDVRCWEVQDSGQTIPKAQQMHTGPVLDVCWSDDGSKVFTASCDKTAKMWDLSSNQAIQIAQHDAPVKTIHWIKAPNYSCVMTGSWDKTLKFWDTRSSNPMMVLQLPERCYCADVIYPMAVVATAERGLIVYQLENQPSEFRRIESPLKHQHRCVAIFKDKQNKPTGFALGSIEGRVAIHYINPPNPAKDNFTFKCHRSNGTNTSAPQDIYAVNGIAFHPVHGTLATVGSDGRFSFWDKDARTKLKTSEQLDQPISACCFNHNGNIFAYASSYDWSKGHEFYNPQKKNYIFLRNAAEELKPRNKK”, the protein production is reported as “failed”.
In the case of “MSLFPGDIEELARRIITDFTPLGLMVSTAESCTGGLIAGALTEIAGSSAVVDRGFVTYTNDAKRDMLGVGTETLTTFGAVSRQTALQMAHGALYRSRANFAVAVTGIAGPGGGSAEKPVGLVHLATKARNGNVLHHEMRYGDIGRTEIRLATVRTALEMLIALNQAGSV”, the protein production is reported as “not failed”.
With “MSLGGNGREKDHASELRSIFSLKKIADAVNGYEEAKYVVFGIPFDNTSSYRRGSKYAPDSIRGAYVNLESYEYSYGIDLLASGMADLGDMEESEDVEYVIDTVESVVSAVMSDGKIPIMLGGEHSITVGAVRALPKDVDLVIVDAHSDFRSSYMGNKYNHACVTRRALDLLGEGRITSIGIRSVSREEFEDPDFRKVSFISSFDVKKNGIDKYIEEVDRKSRRVYISVDMDGIDPAYAPAVGTPEPFGLADTDVRRLIERLSYKAVGFDIVEFSPLYDNGNTSMLAAKLLQVFIASREKYYKEHIEGHHHHHH” the protein production was “not failed”.
For “MSLGNIFVTGRIAFSLKYEQQTQSLVVHVKECHQLAYADEAKKRSNPYVKTYLLPDKSRQGKRKTSIKRDTVNPLYDETLRYEIPESLLAQRTLQFSVWHHGRFGRNTFLGEAEIQMDSWKLDKKLDHCLPLHGKISAESEGHHHHHH”, the protein production was “not failed”.
For “MSLGNNSAKGTATGNATALWRNAQLATLNPAMDGIGAVENAVIAVRNGRIAFAGPESDLPDDLSTADETTDCGGRWITPALIDCHTHLVFGGNRAMEFEMRLNGATYEEIAKAGGGIVSSVRDTRALSDEVLVAQALPRLDTLLSEGVSTIEIKSGYGLDIETELKMLRVARRLETLRPVRIVTSYLAAHATPADYKGRNADYITDVVLPGLEKAHAEGLADAVDGFCEGIAFSVKEIDRVFAAAQQRGLPVKLHAEQLSNLGGAELAASYNALSADHLEYLDETGAKALAKAGTVAVLLPGAFYALREKQLPPVQALRDAGAEIALATDCNPGTSPLTSLLLTMNMGATLFRMTVEECLTATTRNAAKALGLLAETGTLEAGKSADFAIWDIERPAELVYRIGFNPLHARIFKGQKVSPEGHHHHHH”, the protein production was “not failed”.
With “MSLGQQQVTLFWSGAITGPTSDAGAPYGAAVEDYCKWANERKLVPGVVFNCVVRDDQYNNANTQRFFEEAVDRFKIPVFLSYATGANLQLKPLIQELRIPTIPASMHIELIDPPNNDYIFLPTTSYSEQVVALLEYIAREKKGAKVALVVHPSPFGRAPVEDARKAARELGLQIVDVQEVGSGNLDNTALLKRFEQAGVEYVVHQNVAGPVANILKDAKRLGLKMRHLGAHYTGGPDLIALAGDAAEGFLWATSFYMAHEDTPGIRLQKEIGRKYGRPENFIESVNYTNGMLAAAIAVEAIRRAQERFKRITNETVYQAIVGMNGPNAFKPGFAVSTKQGVEIDFTKSEHTGAEGLRILEAKGGRFVPVTEPFTSALFRKVHYGEGHHHHHH” the protein production was “not failed”.
For “MSLGRTDAIALAYPSRPRVLNNSTFLEMISWIGIELGKRGLDLLLIPDEPGEKYQSLIHLVETRRVDALIVAHTQPEDFRLQYLQKQNFPFLALGRSHLPKPYAWFDFDNHAGASLAVKRLLELGHQRIAFVSTDARISYVDQRLQGYVQTMSEAGLMPLAGYLQKADPTRPGGYLAASRLLALEVPPTAIITDCNMLGDGVASALDKAGLLGGEGISLIAYDGLPDDSLLDIAVTPIVQNTRTSVGKQIASMICDLLGGKDPKELQVLWQPEIGEGETDGVNRRGEGHHHHHH”, the protein production was “not failed”.
With “MSLHDQRVHAERDPLDPQAHGLTITRIETIPMVAPLAREFRGSHYHMTHRATIVTRVHTDAGIIGEAYTGDEHETMFDIDRIIHEELAPTLIGQDAMAIERLWDSGYKVTFDILRDRRLGLVALAAVNTAIWDAVGKALKMPLWKLWGGYRNELPMIAIGGYYGEPLGSIADEMHNYQELGLAGVKFKVGGLSAAEDAARITAAREAAGDDFIICIDANQGYKPAVAVDLSRRIADLNIRWFEEPVEWHNDKRSMRDVRYQGSVPVCAGQTEFSASGCRDLMETGAIDVCNFDSSWSGGPTAWLRTAAIATSYDVQMGHHEEPQVSTHLLASQPHGTIAECFHPDRDPFWWNMITNRPKLNNGTLTLSDRPGLGWDLNWDYIDQYRVSKDEGHHHHHH” the protein production was “not failed”.
For “MSLHETFNRSAFSQFINGGQGRVLRLAAGLGFLAVGLVYRDRALGLAAMAWSVLPLTAGGFDVCYISAALGGPLSGEKIRRLRR”, the protein production was “failed”.
For “MSLHPHLNANLEGGVLTLAINRPEAKNALYGELYLWIAKALDEADQNKDVRVVVLRGAEHDFTAGNDMKDFMGFVQNPNAGPAGQVPPFVLLKSAARLSKPLIIAVKGVAIGIGVTILLQADLVFADNTALFQIPFVSLGLSPEGGASQLLVKQAGYHKAAELLFTAKKFNAETALQAGLVNEIVEDAYATAQATAQHLTALPLASLKQTKALMKHDLDQIIECIDHEAEIFMQRVQSPEMLEAVQAFMQKRQPDFSQEGHHHHHH”, the protein production was “not failed”.
In the case of “MSLIPLRQNIASMKGYIPGYQPPDIASWIKLNTNENPYPPSPEVVKAILEELGPDGAALRIYPSASSQKLREVAGELYGFDPSWIIMANGSDEVLNNLIRAFAAEGEEIGYVHPSYSYYGTLAEVQGARVRTFGLTGDFRIAGFPERYEGKVFFLTTPNAPLGPSFPLEYIDELARRCAGMLVLDETYAEFAESNALELVRRHENVVVTRTLSKSYSLAGMRIGLAIARPEVIAALDKIRDHYNLDRLAQAACVAALRDQAYLSECCRRIRETREWFTTELRSIGYDVIPSQGNYLFATPPDRDGKRVYDGLYARKVLVRHFSDPLLAHGMRISIGTREEMEQTLAALKEIGEGHHHHHH”, the protein production is reported as “not failed”.
